Reference: patent publication US20260102505A1, “ANTI-CD45-IGN ANTIBODY DRUG CONJUGATES AND USES THEREOF” (Vor Biopharma Inc., priority 2022, published 2026)

How the values were obtained:
[1] = target: CD45 of non-human primate (NHP), on cells in vivo (non-human primate (NHP); not stated further); assay: in vivo receptor occupancy in NHP at the minimum efficacious dose of 0.15 mg/kg
[2] = target: CD45 of non-human primate (NHP), on cells in vivo (non-human primate (NHP); not stated further); assay: in vivo receptor occupancy on T cells at 24 h after a single dose of 0.30 mg/kg in NHP, n=6
[3] = target: CD45 of non-human primate (NHP), on cells in vivo (non-human primate (NHP); not stated further); assay: in vivo receptor occupancy on T cells at 24 h after a single dose of 0.60 mg/kg in NHP, n=3
[4] = target: CD45 of non-human primate (NHP), on cells in vivo (non-human primate (NHP); not stated further); assay: in vivo receptor occupancy on T cells at 24 h after a single dose of 0.05 mg/kg in NHP, n=3; footnote: * % RO measured after ADC clearance
[5] = target: CD45 of non-human primate (NHP), on cells in vivo (non-human primate (NHP); not stated further); assay: in vivo receptor occupancy on T cells at 24 h after a single dose of 0.10 mg/kg in NHP, n=6; footnote: * % RO measured after ADC clearance
[6] = target: CD45 of non-human primate (NHP), on cells in vivo (non-human primate (NHP); not stated further); assay: in vivo receptor occupancy on T cells at 24 h after a single dose of 0.20 mg/kg in NHP, n=3; footnote: * % RO measured after ADC clearance

receptor occupancy (RO) [1]: 5%
% Receptor Occupancy (T-cells @ 24h) [2]: 46%
% Receptor Occupancy (T-cells @ 24h) [3]: 100%
% Receptor Occupancy (T-cells @ 24h) [4]: 2%
% Receptor Occupancy (T-cells @ 24h) [5]: 4%
% Receptor Occupancy (T-cells @ 24h) [6]: 6%
B1: anti-CD45 ADC comprising anti-CD45 Ab5 conjugated to DGN-549 via cysteines at amino acid 265 (EU numbering by Kabat) in the Fc region, protease-cleavable linker (antibody, human IgG1, kappa, L234A L235A, V domains shown)
VH: EVQLVESGGGLVQPGGSLRLSCAASGFTFEAYSMNWVRQAPGKGLEWVSYISLSGATIHYADSVKGRFTISRDNAKNSLYLQMNSLRAEDTAVYYCARGGQYYYTSSDYGEVAFDIWGQGTMVTVSS
VL: DIVMTQSPLSLPVTPGEPASISCRSSQSLVSSGYNYLDWYLQKPGQSPQLLIYFGSSRASGVPDRFSGSGSGTDFTLKISRVEAEDVGVYYCMQRRRTPWSFGGGTKVEIKR
modifications: DGN549 (IGN pseudo dimer) via a protease-cleavable linker on the engineered Cys at position 265 (EU numbering; D265C)
